Series [1] deals with HeLa Kyoto. The series can be described thus: thermal stability score vs G1/S (z-score of summed log2 fold changes over temperatures); higher = more thermally stable than in G1/S.
The subject of series [2] is HeLa Kyoto. Nature of the series: solubility change mitosis vs G1/S (difference of NP-40 vs SDS log2 ratios) (log2 ratio difference); higher = more soluble in mitosis.
Series [3] has as its system HeLa Kyoto. Nature of the series: solubility in G1/S (NP-40 vs SDS abundance) (log2 ratio); higher = more soluble. The following applies: cell cycle stage: G1/S.
Where [4] appears, read: cell cycle stage: early G1 (4.5 h after nocodazole release).
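For solubility change mitosis vs G1/S (difference of NP-40 vs SDS log2 ratios) in this document: synchronized HeLa Kyoto cells (double thymidine block for G1/S, nocodazole release for mitosis), protein amounts in NP-40 versus SDS lysates quantified by mass spectrometry, three biological replicates.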
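For solubility in G1/S (NP-40 vs SDS abundance) in this document: HeLa Kyoto cells arrested at G1/S by double thymidine block, proteins quantified by TMT10plex mass spectrometry in mild NP-40 versus SDS extracts, three biological replicates.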
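For thermal stability score vs G1/S (z-score of summed log2 fold changes over temperatures) in this document: synchronized HeLa Kyoto cells, proteins quantified by TMT10plex mass spectrometry, three biological replicates, mitosis taken 0.5 h after nocodazole release, G1/S directly after double thymidine block.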

Take “MSGPLEGADGGGDPRPGESFCPGGVPSPGPPQHRPCPGPSLADDTDANSNGSSGNESNGHESRGASQRSSHSSSSGNGKDSALLETTESSKSTNSQSPSPPSSSIAYSLLSASSEQDNPSTSGCSSEQSARARTQKELMTALRELKLRLPPERRGKGRSGTLATLQYALACVKQVQANQEYYQQWSLEEGEPCSMDMSTYTLEELEHITSEYTLQNQDTFSVAVSFLTGRIVYISEQAAVLLRCKRDVFRGTRFSELLAPQDVGVFYGSTAPSRLPTWGTGASAGSGLRDFTQEKSVFCRIRGGPDRDPGPRYQPFRLTPYVTKIRVSDGAPAQPCCLLIAERIHSGYEAPRIPPDKRIFTTRHTPSCLFQDVDERAAPLLGYLPQDLLGAPVLLFLHPEDRPLMLAIHKKILQLAGQPFDHSPIRFCARNGEYVTMDTSWAGFVHPWSRKVAFVLGRHKVRTAPLNEDVFTPPAPSPAPSLDTDIQELSEQIHRLLLQPVHSPSPTGLCGVGAVTSPGPLHSPGSSSDSNGGDAEGPGPPAPVTFQQICKDVHLVKHQGQQLFIESRARPQSRPRLPATGTFKAKALPCQSPDPELEAGSAPVQAPLALVPEEAERKEASSCSYQQINCLDSILRYLESCNLPSTTKRKCASSSSYTTSSASDDDRQRTGPVSVGTKKDPPSAALSGEGATPRKEPVVGGTLSPLALANKAESVVSVTSQCSFSSTIVHVGDKKPPESDIIMMEDLPGLAPGPAPSPAPSPTVAPDPAPDAYRPVGLTKAVLSLHTQKEEQAFLSRFRDLGRLRGLDSSSTAPSALGERGCHHGPAPPSRRHHCRSKAKRSRHHQNPRAEAPCYVSHPSPVPPSTPWPTPPATTPFPAVVQPYPLPVFSPRGGPQPLPPAPTSVPPAAFPAPLVTPMVALVLPNYLFPTPSSYPYGALQTPAEGPPTPASHSPSPSLPALAPSPPHRPDSPLFNSRCSSPLQLNLLQLEELPRAEGAAVAGGPGSSAGPPPPSAEAAEPEARLAEVTESSNQDALSGSSDLLELLLQEDSRSGTGSAASGSLGSGLGSGSGSGSHEGGSTSASITRSSQSSHTSKYFGSIDSSEAEAGAARGGAEPGDQVIKYVLQDPIWLLMANADQRVMMTYQVPSRDMTSVLKQDRERLRAMQKQQPRFSEDQRRELGAVHSWVRKGQLPRALDVMACVDCGSSTQDPGHPDDPLFSELDGLGLEPMEEGGGEQGSSGGGSGEGEGCEEAQGGAKASSSQDLAMEEEEEGRSSSSPALPTAGNCTS [PER1]”: the thermal stability score in the series with HeLa Kyoto [1] (setting [4]) turned out to be 0.55; in the series with HeLa Kyoto [1] (cell cycle stage: mitosis), 0.377. In the series on HeLa Kyoto [2], the “solubility change mitosis (log2)” value was -0.183. For the same sequence, the “solubility in G1/S (log2)” value in the series with HeLa Kyoto [3] turned out to be 0.0364.
The like results for “MSKISEAVKRARAAFSSGRTRPLQFRIQQLEALQRLIQEQEQELVGALAADLHKNEWNAYYEEVVYVLEEIEYMIQKLPEWAADEPVEKTPQTQQDELYIHSEPLGVVLVIGTWNYPFNLTIQPMVGAIAAGNSVVLKPSELSENMASLLATIIPQYLDKDLYPVINGGVPETTELLKERFDHILYTGSTGVGKIIMTAAAKHLTPVTLELGGKSPCYVDKNCDLDVACRRIAWGKFMNSGQTCVAPDYILCDPSIQNQIVEKLKKSLKEFYGEDAKKSRDYGRIISARHFQRVMGLIEGQKVAYGGTGDAATRYIAPTILTDVDPQSPVMQEEIFGPVLPIVCVRSLEEAIQFINQREKPLALYMFSSNDKVIKKMIAETSSGGVAANDVIVHITLHSLPFGGVGNSGMGSYHGKKSFETFSHRRSCLVRPLMNDEGLKVRYPPSPAKMTQH [ALDH3A1]” were, in that order, 0.258, -0.475, -0.153 and 0.316.
In the case of “MSRPVRNRKVVDYSQFQESDDADEDYGRDSGPPTKKIRSSPREAKNKRRSGKNSQEDSEDSEDKDVKTKKDDSHSAEDSEDEKEDHKNVRQQRQAASKAASKQREMLMEDVGSEEEQEEEDEAPFQEKDSGSDEDFLMEDDDDSDYGSSKKKNKKMVKKSKPERKEKKMPKPRLKATVTPSPVKGKGKVGRPTASKASKEKTPSPKEEDEEPESPPEKKTSTSPPPEKSGDEGSEDEAPSGED [NUCKS1]”, the thermal stability score in the series with HeLa Kyoto [1] (setting [4]) is -0.14; in the series with HeLa Kyoto [1] (cell cycle stage: mitosis), 1.15. Besides, the “solubility change mitosis (log2)” value with HeLa Kyoto [2] was determined as 0.307. For the same sequence, the “solubility in G1/S (log2)” value in the series with HeLa Kyoto [3] turned out to be 0.444.
On to “MSSILPFTPPIVKRLLGWKKGEQNGQEEKWCEKAVKSLVKKLKKTGQLDELEKAITTQNVNTKCITIPRSLDGRLQVSHRKGLPHVIYCRLWRWPDLHSHHELRAMELCEFAFNMKKDEVCVNPYHYQRVETPVLPPVLVPRHTEIPAEFPPLDDYSHSIPENTNFPAGIEPQSNIPETPPPGYLSEDGETSDHQMNHSMDAGSPNLSPNPMSPAHNNLDLQPVTYCEPAFWCSISYYELNQRVGETFHASQPSMTVDGFTDPSNSERFCLGLLSNVNRNAAVELTRRHIGRGVRLYYIGGEVFAECLSDSAIFVQSPNCNQRYGWHPATVCKIPPGCNLKIFNNQEFAALLAQSVNQGFEAVYQLTRMCTIRMSFVKGWGAEYRRQTVTSTPCWIELHLNGPLQWLDKVLTQMGSPSIRCSSVS [SMAD3]”, for which the results for the thermal stability score with HeLa Kyoto [1] (setting [4]) and in the series with HeLa Kyoto [1] (cell cycle stage: mitosis) were -0.574 and -1.15, respectively. For the same sequence, in the series with HeLa Kyoto [2], the “solubility change mitosis (log2)” value came to 0.0397. Also, the “solubility in G1/S (log2)” value with HeLa Kyoto [3] is -0.184.
The like results for “MSSMWSEYTIGGVKIYFPYKAYPSQLAMMNSILRGLNSKQHCLLESPTGSGKSLALLCSALAWQQSLSGKPADEGVSEKAEVQLSCCCACHSKDFTNNDMNQGTSRHFNYPSTPPSERNGTSSTCQDSPEKTTLAAKLSAKKQASIYRDENDDFQVEKKRIRPLETTQQIRKRHCFGTEVHNLDAKVDSGKTVKLNSPLEKINSFSPQKPPGHCSRCCCSTKQGNSQESSNTIKKDHTGKSKIPKIYFGTRTHKQIAQITRELRRTAYSGVPMTILSSRDHTCVHPEVVGNFNRNEKCMELLDGKNGKSCYFYHGVHKISDQHTLQTFQGMCKAWDIEELVSLGKKLKACPYYTARELIQDADIIFCPYNYLLDAQIRESMDLNLKEQVVILDEAHNIEDCARESASYSVTEVQLRFARDELDSMVNNNIRKKDHEPLRAVCCSLINWLEANAEYLVERDYESACKIWSGNEMLLTLHKMGITTATFPILQGHFSAVLQKEEKISPIYGKEEAREVPVISASTQIMLKGLFMVLDYLFRQNSRFADDYKIAIQQTYSWTNQIDISDKNGLLVLPKNKKRSRQKTAVHVLNFWCLNPAVAFSDINGKVQTIVLTSGTLSPMKSFSSELGVTFTIQLEANHIIKNSQVWVGTIGSGPKGRNLCATFQNTETFEFQDEVGALLLSVCQTVSQGILCFLPSYKLLEKLKERWLSTGLWHNLELVKTVIVEPQGGEKTNFDELLQVYYDAIKYKGEKDGALLVAVCRGKVSEGLDFSDDNARAVITIGIPFPNVKDLQVELKRQYNDHHSKLRGLLPGRQWYEIQAYRALNQALGRCIRHRNDWGALILVDDRFRNNPSRYISGLSKWVRQQIQHHSTFESALESLAEFSKKHQKVLNVSIKDRTNIQDNESTLEVTSLKYSTSPYLLEAASHLSPENFVEDEAKICVQELQCPKIITKNSPLPSSIISRKEKNDPVFLEEAGKAEKIVISRSTSPTFNKQTKRVSWSSFNSLGQYFTGKIPKATPELGSSENSASSPPRFKTEKMESKTVLPFTDKCESSNLTVNTSFGSCPQSETIISSLKIDATLTRKNHSEHPLCSEEALDPDIELSLVSEEDKQSTSNRDFETEAEDESIYFTPELYDPEDTDEEKNDLAETDRGNRLANNSDCILAKDLFEIRTIKEVDSAREVKAEDCIDTKLNGILHIEESKIDDIDGNVKTTWINELELGKTHEIEIKNFKPSPSKNKGMFPGFK [BRIP1]” were, in that order, 0.36, 1.88, -0.00076 and -0.0862.

The record behind these values is the supplement of paper PMC5998384.
